Values quoted from earlier work in publication PMC11339341.
Like-named read-outs stand apart in the source and are kept apart here. One block for each substance: values may come before it.

Experiments:
[1] = molecular target: IFNAR2 (Homo sapiens) (UniProt P48551)
[2] = molecular target: IL-2Rβ (Homo sapiens) (UniProt P14784)
[3] = molecular target: IL-4Rα (Homo sapiens) (UniProt P24394)
[4] = molecular target: IL-2Rβ (Homo sapiens) (UniProt P14784); remark: listed apart in the source
[5] = molecular target: IL-2Rβ:γc (Homo sapiens) (UniProt P14784)
[6] = molecular target: IL-2Rβ (Homo sapiens) (UniProt P14784); remark: listed apart in the source
[7] = molecular target: IFNAR2 (Homo sapiens) (UniProt P48551); remark: listed apart in the source
[8] = molecular target: IFNAR1 (Homo sapiens) (UniProt P17181)
UniProt P17181, sequence (P17181 28-436): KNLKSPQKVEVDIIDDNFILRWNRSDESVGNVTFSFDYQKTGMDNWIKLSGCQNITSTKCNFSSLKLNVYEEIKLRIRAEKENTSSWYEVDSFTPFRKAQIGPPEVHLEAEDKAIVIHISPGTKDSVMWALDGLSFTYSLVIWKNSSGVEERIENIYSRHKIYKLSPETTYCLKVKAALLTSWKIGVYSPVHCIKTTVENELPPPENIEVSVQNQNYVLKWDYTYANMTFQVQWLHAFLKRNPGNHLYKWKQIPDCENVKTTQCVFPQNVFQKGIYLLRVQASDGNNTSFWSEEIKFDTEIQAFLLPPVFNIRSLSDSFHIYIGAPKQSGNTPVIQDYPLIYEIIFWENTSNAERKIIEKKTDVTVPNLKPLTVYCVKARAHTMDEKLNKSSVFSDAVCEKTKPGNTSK

[9] = molecular target: IL-2Rβ (Homo sapiens) (UniProt P14784); remark: listed apart in the source

UniProt P48551, sequence (P48551 27-243): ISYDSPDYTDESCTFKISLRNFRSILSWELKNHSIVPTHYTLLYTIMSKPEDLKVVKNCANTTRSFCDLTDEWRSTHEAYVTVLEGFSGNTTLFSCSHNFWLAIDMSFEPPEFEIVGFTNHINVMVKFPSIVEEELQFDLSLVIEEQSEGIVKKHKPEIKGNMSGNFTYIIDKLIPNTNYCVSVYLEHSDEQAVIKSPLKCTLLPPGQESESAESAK

Substance: IL-4 (from UniProt P05112)
- Kd [3]: < 1 nM

Substance: IL-2 (from UniProt P60568)
- Kd [4]: 100 nM
- Kd [5]: 1 nM

Substance: IL-2:IL-2Rα complex (from UniProt P60568)
- Kd [6]: 0.03 nM

Substance: IL-15:IL-15Rα complex (from UniProt P40933)
- Kd [9]: 3 nM

Now from value to substance:

- Kd [1]: 200 nM
Substance: IFNα1 (from UniProt P0DY56)

- Kd [2]: 438 nM
Substance: IL-15 (from UniProt P40933)

- Kd [7]: 0.2 nM
- Kd [8]: 50 nM
Substance: IFNβ (from UniProt P01574)
